These are literature values, as cited in PMC6628625.

Read-outs that look alike come from different tables or passages of the source.

As usually defined, the Kd is the constant that tells how readily two partners part at equilibrium.

Data set [1] addresses calmodulin (Homo sapiens) (UniProt P0DP23).
The target is the same in data set [2]. The source holds these as a separate data set.

With “AC (adenylate cyclase toxin) (from UniProt P0DKX7)”, the dissociation constant Kd in data set [1] was 0.2 nM.
In the case of EF (edema factor) (from UniProt P40136), the Kd in data set [2] was 20 nM.
